# Publication PMC3733360 (Structure (London, England : 1993), 2008)
# T1: Snc2pS (soluble Snc2p, amino acids 1-93), wild type (yeast, UniProt P33328 1-93)
# T1 sequence (looked up): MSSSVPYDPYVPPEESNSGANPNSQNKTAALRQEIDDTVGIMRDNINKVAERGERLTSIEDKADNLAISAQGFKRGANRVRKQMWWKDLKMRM
# T2: Sso1pHT (amino acids 185-290 of Sso1p lacking the regulatory Habc domain), wild type (yeast, UniProt P32867 185-290)
# T2 sequence (looked up): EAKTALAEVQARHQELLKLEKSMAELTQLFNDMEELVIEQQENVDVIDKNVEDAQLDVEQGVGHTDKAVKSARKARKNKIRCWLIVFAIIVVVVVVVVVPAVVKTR
# T3: Sec9c (amino acids 401-651 of Sec9), wild type (yeast, UniProt P40357 401-651)
# T3 sequence (looked up): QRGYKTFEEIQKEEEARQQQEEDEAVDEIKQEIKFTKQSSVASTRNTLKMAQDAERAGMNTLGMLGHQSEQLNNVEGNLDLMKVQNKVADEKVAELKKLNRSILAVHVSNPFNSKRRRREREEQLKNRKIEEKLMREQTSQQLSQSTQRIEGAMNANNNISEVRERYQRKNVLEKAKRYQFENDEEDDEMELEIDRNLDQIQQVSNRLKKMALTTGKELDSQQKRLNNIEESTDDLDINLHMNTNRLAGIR
# Assays:
# [1] = biological target: T1, Snc2pS (soluble Snc2p, amino acids …); test: EPR line shape
# [2] = biological target: T2, Sso1pHT (amino acids 185-290 of Sso1p …); test: EPR line shape
# [3] = biological target: T3, Sec9c (amino acids 401-651 of Sec9), …; test: FRET or BRET
percent of SN2 in an unstructured conformation (not in the complex) [1] [%],percent of SN2 in an unstructured conformation (not in the complex) [2] [%],binding result [3],Binder
~60,~60,–,"Sec9c D599C, spin labeled with MTSSL (SN2) (domain or fragment, yeast, UniProt P40357 401-651, looked up, MTSSL nitroxide spin label on cysteine 599) QRGYKTFEEIQKEEEARQQQEEDEAVDEIKQEIKFTKQSSVASTRNTLKMAQDAERAGMNTLGMLGHQSEQLNNVEGNLDLMKVQNKVADEKVAELKKLNRSILAVHVSNPFNSKRRRREREEQLKNRKIEEKLMREQTSQQLSQSTQRIEGAMNANNNISEVRERYQRKNVLEKAKRYQFENDEEDDEMELEIDRNLCQIQQVSNRLKKMALTTGKELDSQQKRLNNIEESTDDLDINLHMNTNRLAGIR"
~60,~60,–,"Sec9c N627C, spin labeled with MTSSL (SN2) (domain or fragment, yeast, UniProt P40357 401-651, looked up, MTSSL nitroxide spin label on cysteine 627) QRGYKTFEEIQKEEEARQQQEEDEAVDEIKQEIKFTKQSSVASTRNTLKMAQDAERAGMNTLGMLGHQSEQLNNVEGNLDLMKVQNKVADEKVAELKKLNRSILAVHVSNPFNSKRRRREREEQLKNRKIEEKLMREQTSQQLSQSTQRIEGAMNANNNISEVRERYQRKNVLEKAKRYQFENDEEDDEMELEIDRNLDQIQQVSNRLKKMALTTGKELDSQQKRLCNIEESTDDLDINLHMNTNRLAGIR"
~60,~60,–,"Sec9c N606C, spin labeled with MTSSL (SN2) (domain or fragment, yeast, UniProt P40357 401-651, looked up, MTSSL nitroxide spin label on cysteine 606) QRGYKTFEEIQKEEEARQQQEEDEAVDEIKQEIKFTKQSSVASTRNTLKMAQDAERAGMNTLGMLGHQSEQLNNVEGNLDLMKVQNKVADEKVAELKKLNRSILAVHVSNPFNSKRRRREREEQLKNRKIEEKLMREQTSQQLSQSTQRIEGAMNANNNISEVRERYQRKNVLEKAKRYQFENDEEDDEMELEIDRNLDQIQQVSCRLKKMALTTGKELDSQQKRLNNIEESTDDLDINLHMNTNRLAGIR"
~60,~60,–,"Sec9c H641C, spin labeled with MTSSL (SN2) (domain or fragment, yeast, UniProt P40357 401-651, looked up, MTSSL nitroxide spin label on cysteine 641) QRGYKTFEEIQKEEEARQQQEEDEAVDEIKQEIKFTKQSSVASTRNTLKMAQDAERAGMNTLGMLGHQSEQLNNVEGNLDLMKVQNKVADEKVAELKKLNRSILAVHVSNPFNSKRRRREREEQLKNRKIEEKLMREQTSQQLSQSTQRIEGAMNANNNISEVRERYQRKNVLEKAKRYQFENDEEDDEMELEIDRNLDQIQQVSNRLKKMALTTGKELDSQQKRLNNIEESTDDLDINLCMNTNRLAGIR"
~60,~60,–,"Sec9c D620C, spin labeled with MTSSL (SN2) (domain or fragment, yeast, UniProt P40357 401-651, looked up, MTSSL nitroxide spin label on cysteine 620) QRGYKTFEEIQKEEEARQQQEEDEAVDEIKQEIKFTKQSSVASTRNTLKMAQDAERAGMNTLGMLGHQSEQLNNVEGNLDLMKVQNKVADEKVAELKKLNRSILAVHVSNPFNSKRRRREREEQLKNRKIEEKLMREQTSQQLSQSTQRIEGAMNANNNISEVRERYQRKNVLEKAKRYQFENDEEDDEMELEIDRNLDQIQQVSNRLKKMALTTGKELCSQQKRLNNIEESTDDLDINLHMNTNRLAGIR"
–,–,binds,"Sso1pHT E185C labeled with Cy3 (domain or fragment, yeast, UniProt P32867 185-290, looked up, Cy3 maleimide on cysteine 185) CAKTALAEVQARHQELLKLEKSMAELTQLFNDMEELVIEQQENVDVIDKNVEDAQLDVEQGVGHTDKAVKSARKARKNKIRCWLIVFAIIVVVVVVVVVPAVVKTR"
–,–,binds,"full-length Snc2p (amino acids 1-115) P13C labeled with Cy5 (natural protein, yeast, UniProt P33328 1-115, looked up, Cy5 maleimide on cysteine 13) MSSSVPYDPYVPCEESNSGANPNSQNKTAALRQEIDDTVGIMRDNINKVAERGERLTSIEDKADNLAISAQGFKRGANRVRKQMWWKDLKMRMCLFLVVIILLVVIIVPIVVHFS"
